From patent US20190062438A1 (CSL, published 2019)
Where two headings read alike, the source gives them in different places.

How the values were obtained:
[1] = target: T1, human CD131 (human, UniProt P32927 17-897); experiment: cell-based or functional assay
T1 sequence: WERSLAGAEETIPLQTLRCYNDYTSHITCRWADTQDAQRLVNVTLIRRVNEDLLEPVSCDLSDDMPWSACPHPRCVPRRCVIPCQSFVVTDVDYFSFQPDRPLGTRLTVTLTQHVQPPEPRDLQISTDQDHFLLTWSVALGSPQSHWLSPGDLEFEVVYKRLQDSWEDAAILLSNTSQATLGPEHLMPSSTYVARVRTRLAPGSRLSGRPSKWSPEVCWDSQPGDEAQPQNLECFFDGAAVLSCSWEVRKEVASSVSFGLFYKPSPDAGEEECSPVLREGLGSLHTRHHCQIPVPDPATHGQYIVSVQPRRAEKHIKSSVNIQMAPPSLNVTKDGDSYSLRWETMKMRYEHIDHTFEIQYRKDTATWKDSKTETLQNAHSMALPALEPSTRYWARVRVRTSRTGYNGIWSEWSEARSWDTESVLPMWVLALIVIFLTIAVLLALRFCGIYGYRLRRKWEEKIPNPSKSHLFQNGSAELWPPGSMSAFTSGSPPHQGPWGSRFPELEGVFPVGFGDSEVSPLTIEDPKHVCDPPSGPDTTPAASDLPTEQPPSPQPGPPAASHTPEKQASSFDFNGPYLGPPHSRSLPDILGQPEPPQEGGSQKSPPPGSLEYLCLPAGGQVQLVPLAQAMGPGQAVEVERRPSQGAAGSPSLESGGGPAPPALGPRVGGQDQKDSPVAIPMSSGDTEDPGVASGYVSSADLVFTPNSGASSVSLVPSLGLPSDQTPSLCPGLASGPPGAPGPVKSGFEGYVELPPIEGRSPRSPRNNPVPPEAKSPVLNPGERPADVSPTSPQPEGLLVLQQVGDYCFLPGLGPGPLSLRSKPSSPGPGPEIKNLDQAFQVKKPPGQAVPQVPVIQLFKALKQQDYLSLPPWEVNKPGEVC

[2] = target: T1, human CD131; experiment: competition binding on purified human eosinophils: cells pre-incubated with the antibody, then equilibrated with 200 pM radio-iodinated IL-5; cell-bound c.p.m.
Experimental: (§1) Each point is the mean of duplicate determinations of cell-bound radioiodinated cytokine and error bars represent the standard deviation.
(§2) Cytokines and antibodies were radio-iodinated using Pierce Pre-Coated Iodination tubes (Thermo Scientific) according to the manufacturer's instructions. MAb binding to cells expressing hβc was determined by incubating 1-2×10⁶ cells with radio-iodinated mAb at a range of concentrations at 23° C. for 1-2 hours with gentle mixing. Cell suspensions were then centrifuged through fetal calf serum (FCS) and radioactivity associated with the cells pellets was assessed by counting in a Wizard² 2470 Automatic Gamma Counter (Perkin Elmer, Rowville, VIC, Australia). Non-specific binding was assessed for each radio-iodinated mAb in the presence of at least a 500-fold excess of unlabeled mAb. […] Competition binding assays were performed essentially as previously described (41). Briefly 1-2×10⁶ cells were incubated with mAb or cytokine competitor at a range of concentrations at 4° C. for 45 minutes with gentle mixing. Radio-iodinated cytokine or mAb was then added and the mixture incubated at 23° C. for a further 1-2 hours with gentle mixing. Cell suspensions were then centrifuged through FCS and radioactivity associated with the cells pellets assessed by counting.

[3] = target: T1, human CD131; experiment: cell-based or functional assay; remark: listed apart in the source
[4] = target: T1, human CD131; experiment: saturation binding of radio-iodinated antibody to TF1 cells (second of three values in the cell)
Experimental: as §2

[5] = target: T1, human CD131; experiment: competition binding on purified human eosinophils: cells pre-incubated with the antibody, then equilibrated with 340 pM radio-iodinated IL-3; cell-bound c.p.m.
Experimental: as §1, §2

[6] = target: T1, human CD131; experiment: saturation binding of radio-iodinated antibody to TF1 cells (third of three values in the cell)
Experimental: as §2

[7] = target: T1, human CD131; experiment: saturation binding of radio-iodinated antibody to TF1 cells (first of three values in the cell)
Experimental: as §2

[8] = target: T1, human CD131; experiment: saturation binding of radio-iodinated antibody to human eosinophils (second of two values in the cell)
Experimental: (§3) Each point is the mean of duplicate determinations of cell-bound radio-iodinated antibody after subtraction of non-specific binding. Data from a single neutrophil binding experiment and a representative eosinophil binding experiment, n=2 is shown.
as §2, with “Radio-iodinated cytokine or mAb was then added and the mixture incubated at 23° C. for a further 1-2 hours with gentle mixing.” left out

[9] = target: T1, human CD131; experiment: saturation binding of radio-iodinated antibody to human eosinophils (first of two values in the cell)
Experimental: as §3
as §2, with “Radio-iodinated cytokine or mAb was then added and the mixture incubated at 23° C. for a further 1-2 hours with gentle mixing.” left out

[10] = target: T1, human CD131; experiment: saturation binding of radio-iodinated IgG on human eosinophils
Experimental: as §3
as §2, with “Radio-iodinated cytokine or mAb was then added and the mixture incubated at 23° C. for a further 1-2 hours with gentle mixing.” left out

[11] = target: T1, human CD131; experiment: saturation binding of radio-iodinated IgG on human neutrophils
Experimental: as §3
as §2, with “Radio-iodinated cytokine or mAb was then added and the mixture incubated at 23° C. for a further 1-2 hours with gentle mixing.” left out

[12] = target: T1, human CD131; experiment: saturation binding of radio-iodinated antibody to cells; row 'Average for all cells (±SEM)' (neutrophils, eosinophils, TF1 cells)
[13] = target: T2, human GM-CSFR α-chain (human, UniProt P15509 23-400); experiment: flow cytometry, transiently transfected cells
T2 construct: whole, on cells; also called GMRα
T2 sequence (looked up): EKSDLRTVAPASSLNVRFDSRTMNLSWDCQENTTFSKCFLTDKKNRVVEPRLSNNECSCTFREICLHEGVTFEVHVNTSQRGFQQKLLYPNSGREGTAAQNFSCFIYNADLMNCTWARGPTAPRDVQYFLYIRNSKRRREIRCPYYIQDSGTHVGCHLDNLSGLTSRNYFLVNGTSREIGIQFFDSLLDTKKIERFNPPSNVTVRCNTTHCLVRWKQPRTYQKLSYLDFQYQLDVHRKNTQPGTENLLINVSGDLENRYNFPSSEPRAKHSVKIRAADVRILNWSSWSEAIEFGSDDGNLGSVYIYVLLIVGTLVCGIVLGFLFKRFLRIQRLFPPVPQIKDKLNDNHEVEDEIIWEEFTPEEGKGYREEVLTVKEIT

[14] = target: T3, human IL-3R α-chain (human, UniProt P26951 19-378); experiment: flow cytometry, transiently transfected cells
T3 construct: also called Hu-IL3R α chain
T3 sequence (P26951 19-378 limits assumed): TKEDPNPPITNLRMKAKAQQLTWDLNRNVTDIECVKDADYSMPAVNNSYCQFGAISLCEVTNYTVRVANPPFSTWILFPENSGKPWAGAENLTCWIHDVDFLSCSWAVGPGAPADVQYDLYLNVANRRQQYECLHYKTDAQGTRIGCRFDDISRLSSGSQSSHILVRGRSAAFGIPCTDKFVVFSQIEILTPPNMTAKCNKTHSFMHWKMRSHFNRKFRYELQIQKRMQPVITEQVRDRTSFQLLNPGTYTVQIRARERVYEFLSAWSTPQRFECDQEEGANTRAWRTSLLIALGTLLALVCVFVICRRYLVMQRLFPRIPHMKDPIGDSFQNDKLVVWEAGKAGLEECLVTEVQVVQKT

[15] = target: T4, human IL-5R α-chain (human, UniProt Q01344 21-420); experiment: flow cytometry, transiently transfected cells
T4 construct: also called Hu-IL5R α chain isoform 1
T4 sequence: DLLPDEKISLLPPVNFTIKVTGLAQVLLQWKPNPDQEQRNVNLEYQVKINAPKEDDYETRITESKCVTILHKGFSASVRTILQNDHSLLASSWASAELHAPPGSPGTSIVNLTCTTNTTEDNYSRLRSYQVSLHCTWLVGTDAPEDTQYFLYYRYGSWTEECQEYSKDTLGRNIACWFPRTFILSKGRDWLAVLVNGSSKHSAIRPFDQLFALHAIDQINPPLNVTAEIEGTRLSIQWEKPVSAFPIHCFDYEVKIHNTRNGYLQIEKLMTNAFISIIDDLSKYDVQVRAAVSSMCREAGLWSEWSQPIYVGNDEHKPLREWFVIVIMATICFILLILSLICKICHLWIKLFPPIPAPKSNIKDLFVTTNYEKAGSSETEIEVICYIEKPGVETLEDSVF

[16] = target: T1, human CD131; experiment: cell-based or functional assay; remark: listed apart in the source

B1: 9A2-VR24.29 (antibody, V domains shown)
VH: EVQLLESGGGLVQPGGSLRLSCAASGFTFPWYRVHWVRQAPGKGLEWVSSIRSSGGFPYYNYKVKGRFTISRDNSKNTLYLQMNSLRAEDTAVYYCARFYDSFFDIWGQGTMVTVSS
VL: DIQMTQSPSSVSASVGDRVTITCRASQGISSWLAWYQQKPGKAPKLLIYAASSLQSGVPSRFSGSGSGTDFTLTISSLQPEDFATYYCQQANSFPITFGQGTRLEIKR
notes: IgG4pK; also called 9A2-VR24.29 IgG
IC50 GM-CSF, TF-1 proliferation [1]: 0.29 nM
IC50 (read off the curve) [2]: ~0.3 nM
IC50 IL-3, TF-1 proliferation [3]: 0.144 nM
IC50 IL-5, TF-1 proliferation [3]: 4.67 nM
fold improvement of IC50 GM-CSF over parental 9A2 [3]: 1570 fold
fold improvement of IC50 IL-3 over parental 9A2 [3]: 41 fold
fold improvement of IC50 IL-5 over parental 9A2 [3]: 310 fold
Kd [4]: 0.303 nM
IC50 (read off the curve) [5]: ~0.007 nM
Kd [6]: 0.393 nM
Kd [7]: 0.361 nM
Kd [8]: 0.528 nM
Kd [9]: 0.73 nM
Kd [10]: 0.629 nM
Kd [11]: 0.246 nM
Kd [12]: 0.426 nM

B2: 9A2 (antibody, IgG4, V domains shown)
VH: EVQLLESGGGLVQPGGSLRLSCAASGFTFSHYHMLWVRQAPGKGLEWVSSIRSSGGFTYYADSVKGRFTISRDNSKNTLYLQMNSLRAEDTAVYYCARFYDSFFDIWGQGTMVTVSS
VL: DIQMTQSPSSVSASVGDRVTITCRASQGISSWLAWYQQKPGKAPKLLIYAASSLQSGVPSRFSGSGSGTDFTLTISSLQPEDFATYYCQQANSFPITFGQGTRLEIKR
notes: IgG4pK (IgG4 S241P, kappa); also called parental 9A2
binding result [13]: no binding
binding result [14]: no binding
binding result [15]: no binding
IC50 GM-CSF, TF-1 proliferation [16]: 456 nM
IC50 IL-3, TF-1 proliferation [16]: 5.96 nM
IC50 IL-5, TF-1 proliferation [16]: 1450 nM
pStat5 IC50 GM-CSF, TF-1 bla reporter [16]: 40 nM
pStat5 IC50 IL-3, TF-1 bla reporter [16]: 7.3 nM
